# Reference: publication doi:10.1101/2021.05.09.442808 (bioRxiv, 2021)
# B1: S2P6 Fab fragment (Fab, V domains shown)
# VH: EVQLVQSGAEVKKPGASVKVSCKASGYTFTSQYMHWVRQAPGQGLEWIGIINPSGVHTSYAQKFQGRVTLTRDTSTSTLYMELSSLRSEDTAVYYCARGSPKGAFDYWGQGTLVTVSS
# VL: not shown
# How the values were obtained:
# [1] = biological target: MERS-CoV S 2P prefusion-stabilized ectodomain trimer (MERS-CoV, strain of ectodomain not …, stabilised); test: SPR
# [2] = biological target: SARS-CoV S 2P prefusion-stabilized ectodomain trimer (SARS-CoV, Urbani (AAP13441, named for …, UniProt P59594, stabilised)); test: SPR
binder,measurement,setting,value
B1,Kd,[1],12 nM
same,Kd,[2],7 nM
